B1: Ib_S4_P5E.1_K5.1_C5.1_H5.1_A5.1_[T5C]_F5.1_[A10T]_T5.1 (ssRNA)
RNA: UUUGACAACUGAUCGUUCUUUCUUGUACUAUUUUUCUUUCUCGAUCAGUUGUCUUU
B2: Ib_S4_P5E.1_K5.1_C5.1_H5.1_[G2A]_[T3A]_A5.1_F5.1_T5.1 (ssRNA)
RNA: B1 RNA with G25A, U26A, C28U, U33A
B3: Ib_S4_P5E.1_K5.1_C5.1_H5.1_[G2C]_[A4T]_A5.1_F5.1_T5.1 (ssRNA)
RNA: B1 RNA with G25C, A27U, C28U, U33A
B4: Ib_S4_P5E.1_K5.1_C5.1_H5.1_A5.1_[A7G]_F5.1_[A10G]_T5.1 (ssRNA)
RNA: B1 RNA with C28U, A30G, U33G
B5: Ib_S4_P5E.1_K5.1_C5.1_H5.1_A5.1_[A7T]_F5.1_[A10T]_T5.1 (ssRNA)
RNA: B1 RNA with C28U, A30U
B6: Ib_S4_P5E.1_K5.1_C5.1_H5.1_[G2A]_[A4T]_A5.1_F5.1_T5.1 (ssRNA)
RNA: B1 RNA with G25A, A27U, C28U, U33A
B7: Ib_S4_P5E.1_K5.1_C5.1_H5.1_[T1C]_[G2T]_A5.1_F5.1_T5.1 (ssRNA)
RNA: B1 RNA with U24C, G25U, C28U, U33A
B8: Ic_S4_P5E.1_K5.1_C5.1_H5.1_A5.1_[A7C]_F5.1_[A10T]_T5.1 (ssRNA)
RNA: B1 RNA with C28U, A30C
B9: Ib_S4_P5E.1_K5.1_C5.1_H5.1_A5.1_[A7T]_F5.1_[A10G]_T5.1 (ssRNA)
RNA: B1 RNA with C28U, A30U, U33G
B10: Ib_S4_P5E.1_K5.1_C5.1_H5.1_[T1C]_[T3C]_A5.1_F5.1_T5.1 (ssRNA)
RNA: B1 RNA with U24C, U26C, C28U, U33A
B11: Ib_S4_P5E.1_K5.1_C5.1_H5.1_[T1G]_[A4C]_A5.1_F5.1_T5.1 (ssRNA)
RNA: B1 RNA with U24G, A27C, C28U, U33A
B12: Ib_S4_P5E.1_K5.1_C5.1_H5.1_[G2C]_[A4G]_A5.1_F5.1_T5.1 (ssRNA)
RNA: B1 RNA with G25C, A27G, C28U, U33A
B13: Ib_S4_P5E.1_K5.1_C5.1_H5.1_[T1C]_[A4T]_A5.1_F5.1_T5.1 (ssRNA)
RNA: B1 RNA with U24C, A27U, C28U, U33A
B14: Ib_S4_P5E.1_K5.1_C5.1_H5.1_A5.1_[T6C]_F5.1_[A10T]_T5.1 (ssRNA)
RNA: B1 RNA with C28U, U29C
B15: Ib_S4_P5E.1_K5.1_C5.1_H5.1_[T3G]_[A4T]_A5.1_F5.1_T5.1 (ssRNA)
RNA: B1 RNA with U26G, A27U, C28U, U33A
B16: Ib_S4_P5E.1_K5.1_C5.1_H5.1_[T1A]_[A4G]_A5.1_F5.1_T5.1 (ssRNA)
RNA: B1 RNA with U24A, A27G, C28U, U33A
B17: Ib_S4_P5E.1_K5.1_C5.1_H5.1_[T3G]_[A4C]_A5.1_F5.1_T5.1 (ssRNA)
RNA: B1 RNA with U26G, A27C, C28U, U33A
B18: Ib_S4_P5E.1_K5.1_C5.1_H5.1_[T1A]_[T3C]_A5.1_F5.1_T5.1 (ssRNA)
RNA: B1 RNA with U24A, U26C, C28U, U33A
B19: Ib_S4_P5E.1_K5.1_C5.1_H5.1_[T1C]_[G2A]_A5.1_F5.1_T5.1 (ssRNA)
RNA: B1 RNA with U24C, G25A, C28U, U33A
B20: Ib_S4_P5E.1_K5.1_C5.1_H5.1_[G2T]_[A4G]_A5.1_F5.1_T5.1 (ssRNA)
RNA: B1 RNA with G25U, A27G, C28U, U33A
B21: Ic_S4_P4E.1_K4.1_C4.1_H4.1_A4.1_[T5A]_F4.1_T4.1 (ssRNA)
RNA: UUUGACAACUGAUCGUUCUUUCUUGUAAAUUAUUCUUUCUCGAUCAGUUGUCUUU
B22: Ia_S4_P4E.1_K4.1_C4.1_H4.1_A4.1_[A6C]_F4.1_T4.1 (ssRNA)
RNA: B21 RNA with A28U, A29C

This passage reports Kd results from publication PMC9352680, “A comprehensive thermodynamic model for RNA binding by the Saccharomyces cerevisiae Pumilio protein PUF4”.

Changes are numbered by the printed parent chain. Numbers in names are those of the source.

This data set concerns the target T1, PUF4 RNA-binding domain (Saccharomyces cerevisiae, UniProt P25339 537-888).
T1 sequence: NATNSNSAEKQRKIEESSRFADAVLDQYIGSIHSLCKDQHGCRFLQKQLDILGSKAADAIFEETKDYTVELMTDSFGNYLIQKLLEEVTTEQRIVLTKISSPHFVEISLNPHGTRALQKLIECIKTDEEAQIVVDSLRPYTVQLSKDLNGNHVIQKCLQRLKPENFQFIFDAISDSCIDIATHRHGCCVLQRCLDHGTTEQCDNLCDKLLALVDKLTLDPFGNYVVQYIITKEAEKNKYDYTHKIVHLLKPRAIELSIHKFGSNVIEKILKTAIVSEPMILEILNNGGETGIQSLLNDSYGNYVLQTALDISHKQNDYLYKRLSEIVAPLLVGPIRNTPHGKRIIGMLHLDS
The data set can be described thus: Mg; RNA-MaP; 20 mM Na-HEPES pH 7.4, 30 mM KOAc, 0.75 mM MgCl2, 0.1% Tween-20, 5% glycerol, 0.1 mg/mL BSA, 2 mM DTT; 25 C; 0.0125-409.6 nM protein. Particulars: tags: N-His6-TEV cleaved; C-SNAP kept, Cy3B-labelled; label: tethered on chip by stalled RNA polymerase.
As to B1, the affinity, expressed as Kd, was 4.98 nM. B2 returned a Kd of 2140 nM. For B3, the Kd was > 2300 nM. In the case of B4 it was 52.3 nM.

In turn, B5 gave a Kd of 10.7 nM. Compared with the last molecule, the Kd is about 4.9-fold lower. In the case of B6 it was 1440 nM. In the case of B7, the Kd was > 2300 nM. Molecule B8 registered a Kd of 13.8 nM.

For the molecule B9, binding was characterised by a dissociation constant (Kd) of 9.13 nM. As for B10, the Kd was > 2300 nM. In the case of B11, the equilibrium dissociation constant (Kd) was > 2300 nM. For the molecule B12, the Kd is 455 nM. B13 returned a Kd of 1050 nM. As for B14, the affinity, expressed as Kd, was 7.7 nM. In the case of B15 it was 745 nM; in that of B16, 1260 nM. Molecule B17 displayed a Kd of 1880 nM. The Kd values of the last two molecules are within 1.5-fold of each other.

Regarding B18, the Kd is > 2300 nM. In turn, B19 yielded a Kd of 1660 nM. Take B20: the equilibrium dissociation constant (Kd) is 492 nM. In the case of B21 it was 1.69 nM. Molecule B22 displayed an equilibrium dissociation constant (Kd) of 2.17 nM.

Usually Kd stands for the equilibrium constant for the complex coming apart.
